The source of these data is patent US20150071985A1 (HAEMOSTATIX, published 2015).

Where no end group is shown, it is not given here. A value given as a limit tells only on which side of the number the result lay.

The target in assay [1] is human fibrinogen (human) (UniProt P02671). The assay is described as follows: cell-based or functional assay.
The target in assay [2] is T1, human fibrinogen (human, UniProt P02671 20-629; P02675 31-491; P02679 27-437, limits assumed).
T1 construct: also called purified human fibrinogen
T1 sequence (looked up) 1: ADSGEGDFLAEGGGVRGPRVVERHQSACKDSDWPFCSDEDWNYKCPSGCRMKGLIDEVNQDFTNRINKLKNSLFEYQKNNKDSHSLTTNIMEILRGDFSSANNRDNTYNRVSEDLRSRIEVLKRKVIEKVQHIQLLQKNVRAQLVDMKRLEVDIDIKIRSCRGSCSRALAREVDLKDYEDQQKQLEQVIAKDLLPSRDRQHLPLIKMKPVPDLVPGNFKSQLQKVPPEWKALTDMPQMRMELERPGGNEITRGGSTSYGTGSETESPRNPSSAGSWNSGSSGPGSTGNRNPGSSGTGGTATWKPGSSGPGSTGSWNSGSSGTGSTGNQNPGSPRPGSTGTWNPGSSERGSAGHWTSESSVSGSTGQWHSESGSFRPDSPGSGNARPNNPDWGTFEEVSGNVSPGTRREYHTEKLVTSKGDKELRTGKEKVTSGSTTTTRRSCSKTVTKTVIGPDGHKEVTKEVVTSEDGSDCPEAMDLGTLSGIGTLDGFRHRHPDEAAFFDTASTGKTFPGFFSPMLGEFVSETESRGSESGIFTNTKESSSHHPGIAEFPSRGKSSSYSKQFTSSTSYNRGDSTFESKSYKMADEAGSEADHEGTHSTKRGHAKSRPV
T1 sequence (looked up) 2: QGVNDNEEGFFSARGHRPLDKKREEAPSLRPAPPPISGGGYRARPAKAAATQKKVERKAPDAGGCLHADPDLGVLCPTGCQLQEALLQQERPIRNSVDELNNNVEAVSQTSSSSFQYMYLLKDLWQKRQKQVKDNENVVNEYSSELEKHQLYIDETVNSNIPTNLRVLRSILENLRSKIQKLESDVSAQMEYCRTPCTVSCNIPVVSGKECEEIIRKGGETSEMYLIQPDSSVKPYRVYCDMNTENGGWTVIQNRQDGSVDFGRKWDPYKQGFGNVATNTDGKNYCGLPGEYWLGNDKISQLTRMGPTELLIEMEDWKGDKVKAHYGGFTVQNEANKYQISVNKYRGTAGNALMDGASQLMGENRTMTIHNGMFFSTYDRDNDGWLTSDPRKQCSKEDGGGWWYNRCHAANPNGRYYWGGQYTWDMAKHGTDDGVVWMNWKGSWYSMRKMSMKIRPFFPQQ
T1 sequence (looked up) 3: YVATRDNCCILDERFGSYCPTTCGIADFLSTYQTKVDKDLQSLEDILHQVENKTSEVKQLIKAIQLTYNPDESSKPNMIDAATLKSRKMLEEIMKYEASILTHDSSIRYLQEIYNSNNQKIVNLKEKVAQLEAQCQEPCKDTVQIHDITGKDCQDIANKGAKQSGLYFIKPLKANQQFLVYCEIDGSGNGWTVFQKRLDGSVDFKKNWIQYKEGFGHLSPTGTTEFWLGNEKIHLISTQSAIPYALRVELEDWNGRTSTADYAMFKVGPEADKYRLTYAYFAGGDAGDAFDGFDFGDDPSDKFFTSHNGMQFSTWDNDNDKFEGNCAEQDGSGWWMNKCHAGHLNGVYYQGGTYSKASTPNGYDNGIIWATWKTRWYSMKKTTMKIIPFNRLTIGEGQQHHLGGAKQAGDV
Briefly: flow cytometry; peptide-albumin microparticles incubated with fluorescent fibrinogen. Background: In flow cytometry, cells or beads pass a laser one at a time.

For the molecule “PeproStat (GPRPG-PEG12-maleimide conjugated to thiolated human serum albumin) (from UniProt P02768 25-609)”, in assay [1], the Clotting activity (time to clot formation, Sigma Amelung KC4 coagulometer; 30 µL sample at 0.5 mg/ml added to 100 µL purified human fibrinogen at 3 mg/ml) was less than 6 s.

B1: GPRPG peptide conjugated to albumin microparticles (peptide)
peptide: GPRPG
modifications: also: conjugated to albumin microparticles, linker and chemistry not given here
notes: Surrogate of PeproStat for the flow cytometry test; also called the particles; not shown: The albumin microparticle carrier
Turning to B1, the binding result in assay [2] is listed as “binds”.
